According to article PMC9352680, “A comprehensive thermodynamic model for RNA binding by the Saccharomyces cerevisiae Pumilio protein PUF4”:

T1: PUF4 RNA-binding domain (Saccharomyces cerevisiae, UniProt P25339 537-888)
T1 sequence: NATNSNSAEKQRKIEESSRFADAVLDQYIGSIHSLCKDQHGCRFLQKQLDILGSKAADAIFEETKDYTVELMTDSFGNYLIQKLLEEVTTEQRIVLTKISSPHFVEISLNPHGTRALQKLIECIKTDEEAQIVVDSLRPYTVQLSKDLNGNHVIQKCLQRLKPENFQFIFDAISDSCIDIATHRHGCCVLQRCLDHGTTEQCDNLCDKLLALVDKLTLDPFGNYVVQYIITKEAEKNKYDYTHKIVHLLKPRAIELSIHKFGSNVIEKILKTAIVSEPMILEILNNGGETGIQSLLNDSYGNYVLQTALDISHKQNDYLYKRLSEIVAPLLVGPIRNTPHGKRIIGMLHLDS


What follows are binders tested against T1, PUF4 RNA-binding domain (assay: Mg; RNA-MaP; 20 mM Na-HEPES pH 7.4, 30 mM KOAc, 0.75 mM MgCl2, 0.1% Tween-20, 5% glycerol, 0.1 mg/mL BSA, 2 mM DTT; 25 C; 0.0125-409.6 nM protein). Details: tags: N-His6-TEV cleaved; C-SNAP kept, Cy3B-labelled; label: tethered on chip by stalled RNA polymerase.

| Binder | Kd [nM] |
| --- | --- |
| UCUCUUGUUGUAUAUAUUUCUCUU (ssRNA) [Id_ii_S1_P3E.2_K3.1_C3.2_[C-2G]_H3.1_A3.1_F3.1_T3.2_[A10T]] | 8 |
| UCUCUUUCUGUAUAUAUCUCUCUU (ssRNA) [Id_ii_S1_P3E.2_K3.1_C3.2_[C-2T]_[T-1C]_H3.1_A3.1_F3.1_T3.2_[A10C]] | 5.38 |
| UCUCUUGCUGUAUAUAAAUCUCUU (ssRNA) [Id_ii_S1_P3E.2_K3.1_C3.2_[C-2G]_[T-1C]_H3.1_A3.1_F3.1_T3.2_[T9A]] | 15.5 |
| UCUCUUUGUGUAUAUAGUUCUCUU (ssRNA) [Id_ii_S1_P3E.2_K3.1_C3.2_[C-2T]_[T-1G]_H3.1_A3.1_F3.1_T3.2_[T9G]_[A10T]] | 6.29 |
| UCUCUUUCUGUAUAUAUUUCUCUU (ssRNA) [Id_ii_S1_P3E.2_K3.1_C3.2_[C-2T]_[T-1C]_H3.1_A3.1_F3.1_T3.2_[A10T]] | 5.64 |
| UCUCUUUCUCUAUUAUCUCUU (ssRNA) [Ib_S1_P4E.1_K4.1_C4.1_H4.1_[G2C]_[A4C]_A4.1_F4.1_T4.1] | > 2300 |
| UCUCUUUUUGUAUAUAGUUCUCUU (ssRNA) [Id_ii_S1_P3E.2_K3.1_C3.2_[C-2T]_H3.1_A3.1_F3.1_T3.2_[T9G]_[A10T]] | 4.16 |
| UCUCUUAGUGUAUAUAGUUCUCUU (ssRNA) [Id_ii_S1_P3E.2_K3.1_C3.2_[C-2A]_[T-1G]_H3.1_A3.1_F3.1_T3.2_[T9G]_[A10T]] | 6.52 |
| UCUCUUUUUGUAUAUAACUCUCUU (ssRNA) [Id_ii_S1_P3E.2_K3.1_C3.2_[C-2T]_H3.1_A3.1_F3.1_T3.2_[T9A]_[A10C]] | 9.6 |
| UCUCUUUCUGUAUAUACAUCUCUU (ssRNA) [Id_ii_S1_P3E.2_K3.1_C3.2_[C-2T]_[T-1C]_H3.1_A3.1_F3.1_T3.2_[T9C]] | 23 |
| UCUCUUUGUGUAUAUAAUUCUCUU (ssRNA) [Id_ii_S1_P3E.2_K3.1_C3.2_[C-2T]_[T-1G]_H3.1_A3.1_F3.1_T3.2_[T9A]_[A10T]] | 9.46 |
| UCUCUUGUUGUAUAUAUAUCUCUU (ssRNA) [Id_ii_S1_P3E.2_K3.1_C3.2_[C-2G]_H3.1_A3.1_F3.1_T3.2] | 5.16 |
| UCUCUUUAUGUAUAUAUCUCUCUU (ssRNA) [Id_ii_S1_P3E.2_K3.1_C3.2_[C-2T]_[T-1A]_H3.1_A3.1_F3.1_T3.2_[A10C]] | 9.65 |
| UCUCUUGUUGUAUAUAAUUCUCUU (ssRNA) [Id_ii_S1_P3E.2_K3.1_C3.2_[C-2G]_H3.1_A3.1_F3.1_T3.2_[T9A]_[A10T]] | 9.55 |
| UCUCUUGUUGUAUAUAUCUCUCUU (ssRNA) [Id_ii_S1_P3E.2_K3.1_C3.2_[C-2G]_H3.1_A3.1_F3.1_T3.2_[A10C]] | 8.36 |
| UCUCUUUAAAUAUUAUCUCUU (ssRNA) [Ib_S1_P4E.1_K4.1_C4.1_H4.1_[G2A]_[T3A]_A4.1_F4.1_T4.1] | > 2300 |

| Binder | Kd [nM] |
| --- | --- |
| UCUCUUGUUGUAUAUACCUCUCUU (ssRNA) [Id_ii_S1_P3E.2_K3.1_C3.2_[C-2G]_H3.1_A3.1_F3.1_T3.2_[T9C]_[A10C]] | 20.1 |
| UCUCUUUAUGUAUAUAGUUCUCUU (ssRNA) [Id_ii_S1_P3E.2_K3.1_C3.2_[C-2T]_[T-1A]_H3.1_A3.1_F3.1_T3.2_[T9G]_[A10T]] | 6.42 |
| UCUCUUUUUGUAUAUAAAUCUCUU (ssRNA) [Id_ii_S1_P3E.2_K3.1_C3.2_[C-2T]_H3.1_A3.1_F3.1_T3.2_[T9A]] | 10.5 |
| UCUCUUGCUGUAUAUAAUUCUCUU (ssRNA) [Id_ii_S1_P3E.2_K3.1_C3.2_[C-2G]_[T-1C]_H3.1_A3.1_F3.1_T3.2_[T9A]_[A10T]] | 12.4 |
| UCUCUUGUUGUAUAUAGUUCUCUU (ssRNA) [Id_ii_S1_P3E.2_K3.1_C3.2_[C-2G]_H3.1_A3.1_F3.1_T3.2_[T9G]_[A10T]] | 4.57 |
| UCUCUUUUUGUAUAUACUUCUCUU (ssRNA) [Id_ii_S1_P3E.2_K3.1_C3.2_[C-2T]_H3.1_A3.1_F3.1_T3.2_[T9C]_[A10T]] | 10.2 |
| UCUCUUUAUGUAUAUAGCUCUCUU (ssRNA) [Id_ii_S1_P3E.2_K3.1_C3.2_[C-2T]_[T-1A]_H3.1_A3.1_F3.1_T3.2_[T9G]_[A10C]] | 6.81 |
| UCUCUUUUUGUAUAUAUUUCUCUU (ssRNA) [Id_ii_S1_P3E.2_K3.1_C3.2_[C-2T]_H3.1_A3.1_F3.1_T3.2_[A10T]] | 6.67 |
| UCUCUUUAUGUAUAUACUUCUCUU (ssRNA) [Id_ii_S1_P3E.2_K3.1_C3.2_[C-2T]_[T-1A]_H3.1_A3.1_F3.1_T3.2_[T9C]_[A10T]] | 15.1 |
| UCUCUUUUUGUAUAUAGGUCUCUU (ssRNA) [Id_ii_S1_P3E.2_K3.1_C3.2_[C-2T]_H3.1_A3.1_F3.1_T3.2_[T9G]_[A10G]] | 10.7 |
| UCUCUUUUUGUAUAUACCUCUCUU (ssRNA) [Id_ii_S1_P3E.2_K3.1_C3.2_[C-2T]_H3.1_A3.1_F3.1_T3.2_[T9C]_[A10C]] | 12.1 |
| UCUCUUUAUGUAUAUAUUUCUCUU (ssRNA) [Id_ii_S1_P3E.2_K3.1_C3.2_[C-2T]_[T-1A]_H3.1_A3.1_F3.1_T3.2_[A10T]] | 9.19 |
| UCUCUUUGUGUAUAUAUCUCUCUU (ssRNA) [Id_ii_S1_P3E.2_K3.1_C3.2_[C-2T]_[T-1G]_H3.1_A3.1_F3.1_T3.2_[A10C]] | 7.14 |
| UCUCUUUCUGUAUAUAAGUCUCUU (ssRNA) [Id_ii_S1_P3E.2_K3.1_C3.2_[C-2T]_[T-1C]_H3.1_A3.1_F3.1_T3.2_[T9A]_[A10G]] | 6.84 |
| UCUCUUAGUUUAUUAUCUCUU (ssRNA) [Ib_S1_P4E.1_K4.1_C4.1_H4.1_[T1A]_[A4T]_A4.1_F4.1_T4.1] | > 2300 |
